Data on 1 protein can be found in article PMC2570560, “Subunit Mobility and the Chaperone Activity of Recombinant αB-Crystallin” (The Open Biochemistry Journal, 2008).

This data set concerns the molecule itself. In words: cross-linking; 0.05 mM αB-crystallin with 0.3 mM glutaraldehyde in PBS (20 mM phosphate buffer, 150 mM NaCl, pH 7.2), 20 °C, 30 h; dialysed against PBS; examined by SDS-PAGE.

B1: recombinant human αB-crystallin (natural protein, UniProt P02511 1-175, looked up)
chain: MDIAIHHPWIRRPFFPFHSPSRLFDQFFGEHLLESDLFPTSTSLSPFYLRPPSFLRAPSWFDTGLSEMRLEKDRFSVNLDVKHFSPEELKVKVLGDVIEVHGKHEERQDEHGFISREFHRKYRIPADVDPLTITSSLSSDGVLTVNGPRKQVSGPERTIPITREEKPAVTAAPKK
notes: also called native αB-crystallin; source: E. coli BL21(DE3), purified (ammonium sulfate fractionation, Q-Sepharose anion exchange)
For the protein B1, the binding result was “binds”.
